Data as given in patent publication US8013123B2 (B.R.A.H.M.S. GmbH, priority 2004, dated 2011).
Ends that are not written are not given here.

Key:
[1] = Stability of proenkephalin fragments and enkephalins ex vivo (plasma, liquor); assay type: in vitro ADME
Text: In one embodiment the invention is based on and uses the discovered long term stability of proenkephalin and enkephalin-fp ex vivo in plasma (FIG. 3a). […] Proenkephalin and enkephalin-fp are stable as well in liquor.

B- and T-lymphocytes = conditions: cited from earlier work
[2] = test system: gram-negative bacteria like Escherichia coli; conditions: cited from earlier work
[3] = test system: gram-positive bacteria like Streptococcus aureus, Bacillus megaterium and Micrococcus luteus; conditions: cited from earlier work

DAEEDDSLANSSDLLKELLETGDNRERSHHQDGSDNEEEVS [enkephalin-fp]
half-life ([1]; ex vivo in plasma): > 24 h | stability in liquor [1]: stable

methionine enkephalin [Met-ENK]
proliferation (B- and T-lymphocytes): stimulates the proliferation

B1: Synenkephalin: PENK-A derived peptide with antibacterial properties (peptide, UniProt P01210 25-97, looked up)
Synenkephalin: ECSQDCATCSYRLVRPADINFLACVMECEGKLPSLKIWETCKELLQLSKPELPQDGTSTLRENSKPEESHLLA
modifications: Synenkephalin
antibacterial function / growth inhibition [2]: antibacterial properties | antibacterial function [3]: antibacterial properties

B2: proenkephalin: precursor of the enkephalins, Sequence ID 1, including its fragments (protein)
chain: ECSQDCATCSYRLVRFADINFLACVMECEGKLPSLKIWETCKELLQLSKPELPQDGTSTLRENSKPEESHLLAKRYGGFMKRYGGFMKKMDELYPMEPEEEANGSEILAKRYGGFMKKNAEEDDSLANSSDLLKELLETGDNRERSHHQDGSDNEEEVSKRYGGFMRGLKRSPQLEDEAKELQKRYGGFMRRVGRPEWWMDYQKRYGGFLKRFAEALPSDEEGESYSKEVPEMEKRYGGFMRF
in vivo half-life (In vivo half-life): about 24 hours | stability in liquor [1]: stable
